Measurements as given in patent publication US20140087995A1 (published 2014).
One block for each binder: values may come before it. Numbered stars: 1 amine (or outer) side, 2 acyl side, 3 side chain; on linkers, the order of the positions; unused ones are H or OH. Bridge positions count the residues as written; N and C are the ends. Side chains are listed from the residue outwards. Ends that are not written are not given here. * marks the point of attachment. C20 diacid = O=C(O)CCCCCCCCCCCCCCCCCCC(=O)*; γGlu = O=C(O)[C@H](CCC(=O)[*:2])N[*:1]

Assays:
rat calcitonin receptor [1] = target: T1, rat calcitonin receptor (rat, UniProt P32214 25-516); test: IC50 on rat CTR divided by IC50 on rat amylin receptor (Assays VIII/VI)
T1 construct: whole, on cells; Used as membranes prepared from BHK tk'ts 13 cells transiently transfected with the rat calcitonin receptor (Assay VIII); also called rCTR; rat calcitonin (a) receptor
T1 sequence (looked up): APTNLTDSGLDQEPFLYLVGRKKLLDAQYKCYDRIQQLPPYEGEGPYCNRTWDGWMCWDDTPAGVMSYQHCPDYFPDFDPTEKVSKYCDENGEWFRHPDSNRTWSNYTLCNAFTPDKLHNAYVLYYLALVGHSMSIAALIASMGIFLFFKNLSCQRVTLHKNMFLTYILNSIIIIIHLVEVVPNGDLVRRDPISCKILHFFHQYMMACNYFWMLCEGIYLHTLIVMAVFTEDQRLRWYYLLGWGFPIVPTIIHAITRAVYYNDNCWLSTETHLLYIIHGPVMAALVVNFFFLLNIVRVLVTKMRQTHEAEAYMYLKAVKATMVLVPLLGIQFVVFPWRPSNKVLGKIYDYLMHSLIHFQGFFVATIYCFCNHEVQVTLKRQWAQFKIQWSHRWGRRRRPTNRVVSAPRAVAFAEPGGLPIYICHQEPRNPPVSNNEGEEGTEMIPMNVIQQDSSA

[2] = target: T2, human calcitonin receptor (human, UniProt P30988 25-474); test: IC50 on human CTR divided by IC50 on human amylin receptor (Assays VII/V)
T2 construct: whole, on cells; Used as membranes prepared from a BHK tk'ts 13 cell line stably transfected with the human calcitonin receptor (Assay VII); also called hCTR; hCT
T2 sequence (looked up): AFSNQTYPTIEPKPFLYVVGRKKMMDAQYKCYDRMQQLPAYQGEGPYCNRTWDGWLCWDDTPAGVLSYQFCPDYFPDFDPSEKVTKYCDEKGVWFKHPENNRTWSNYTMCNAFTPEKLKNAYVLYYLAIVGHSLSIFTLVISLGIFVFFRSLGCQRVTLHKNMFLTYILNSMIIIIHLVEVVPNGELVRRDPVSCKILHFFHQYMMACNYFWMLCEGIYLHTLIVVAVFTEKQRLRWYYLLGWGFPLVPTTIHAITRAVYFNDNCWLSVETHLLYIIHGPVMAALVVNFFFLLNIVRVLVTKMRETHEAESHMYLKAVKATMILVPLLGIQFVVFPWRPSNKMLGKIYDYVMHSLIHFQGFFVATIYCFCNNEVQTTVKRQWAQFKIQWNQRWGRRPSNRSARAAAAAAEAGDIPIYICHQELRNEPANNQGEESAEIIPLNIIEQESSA
Summary of the method: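 Membranes (35 ng/μL final) + SPA beads, 50 mM Hepes pH 7.4 buffer with 1 mM CaCl2, 5 mM MgCl₂, 0.1% OA, 0.02% Tween20; 120 min, 25° C, shaking; centrifuged, counted; IC₅₀ by one-site binding competition.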

rat calcitonin receptor [3] = target: T1, rat calcitonin receptor; test: SPA competition with 125I-calcitonin, membranes of BHK cells with rat CTR (Assay VIII)
[4] = target: T3, rat amylin receptor (rat calcitonin receptor + rat RAMP 3) (rat, UniProt P32214 25-516; Q9JJ73 23-147); test: SPA competition with 125I-rat amylin, membranes of BHK cells with rat CTR + rat RAMP3 (Assay VI)
T3 construct: whole, on cells; Used as membranes prepared from BHK tk'ts 13 cells transiently transfected with rat calcitonin receptor and rat RAMP 3 (Assay VI); also called rAmylin-R; rat amylin 3(a) receptor
T3 sequence (looked up) 1: T1 sequence (looked up)
T3 sequence (looked up) 2: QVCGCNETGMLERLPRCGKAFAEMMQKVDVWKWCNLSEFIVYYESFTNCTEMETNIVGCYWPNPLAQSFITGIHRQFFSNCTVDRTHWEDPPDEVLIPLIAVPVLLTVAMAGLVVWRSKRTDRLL

Ratio rCT/rAmylin binding (rat calcitonin receptor [1]): 96.5
Ratio hCT/hAmylin binding [2]: 60.8
IC50 (rat calcitonin receptor [3]): 34.2 nM
IC50 [4]: 0.355 nM
B1: N^ε1-[(4S)-4-carboxy-4-(19-carboxynonadecanoylamino)butanoyl]-[His14,Arg17,Pro21,Pro27]-h-amylin (peptide)
peptide: K([γGlu-C20 diacid])CNTATCATQRLAHFLRHSSPNFGAIPSSTNVGSNTY-NH2
modifications: disulfide 2-7; N-terminus assumed
SMILES: CC[C@H](C)[C@H](NC(=O)[C@H](C)NC(=O)CNC(=O)[C@H](Cc1ccccc1)NC(=O)[C@H](CC(N)=O)NC(=O)[C@@H]1CCCN1C(=O)[C@H](CO)NC(=O)[C@H](CO)NC(=O)[C@H](Cc1c[nH]cn1)NC(=O)[C@H](CCCNC(=N)N)NC(=O)[C@H](CC(C)C)NC(=O)[C@H](Cc1ccccc1)NC(=O)[C@H](Cc1c[nH]cn1)NC(=O)[C@H](C)NC(=O)[C@H](CC(C)C)NC(=O)[C@H](CCCNC(=N)N)NC(=O)[C@H](CCC(N)=O)NC(=O)[C@@H](NC(=O)[C@H](C)NC(=O)[C@@H]1CSSC[C@H](NC(=O)[C@@H](N)CCCCNC(=O)CC[C@H](NC(=O)CCCCCCCCCCCCCCCCCCC(=O)O)C(=O)O)C(=O)N[C@@H](CC(N)=O)C(=O)N[C@@H]([C@@H](C)O)C(=O)N[C@@H](C)C(=O)N[C@@H]([C@@H](C)O)C(=O)N1)[C@@H](C)O)C(=O)N1CCC[C@H]1C(=O)N[C@@H](CO)C(=O)N[C@@H](CO)C(=O)N[C@H](C(=O)N[C@@H](CC(N)=O)C(=O)N[C@H](C(=O)NCC(=O)N[C@@H](CO)C(=O)N[C@@H](CC(N)=O)C(=O)N[C@H](C(=O)N[C@@H](Cc1ccc(O)cc1)C(N)=O)[C@@H](C)O)C(C)C)[C@@H](C)O
notes: Analogue of human amylin; also called compound 70

Ratio rCT/rAmylin binding (rat calcitonin receptor [1]): 85.4
Ratio hCT/hAmylin binding [2]: 51.6
IC50 (rat calcitonin receptor [3]): 14.7 nM
IC50 [4]: 0.172 nM
B2: N^ε1N^ε1-[(4S)-4-carboxy-4-(19-carboxynonadecanoylamino)butanoyl]-[His14,Arg17,Pro21,Pro27,Pro34]-h-amylin (peptide)
peptide: K([γGlu-C20 diacid])CNTATCATQRLAHFLRHSSPNFGAIPSSTNVGPNTY-NH2
modifications: disulfide 2-7; N-terminus assumed
SMILES: CC[C@H](C)[C@H](NC(=O)[C@H](C)NC(=O)CNC(=O)[C@H](Cc1ccccc1)NC(=O)[C@H](CC(N)=O)NC(=O)[C@@H]1CCCN1C(=O)[C@H](CO)NC(=O)[C@H](CO)NC(=O)[C@H](Cc1c[nH]cn1)NC(=O)[C@H](CCCNC(=N)N)NC(=O)[C@H](CC(C)C)NC(=O)[C@H](Cc1ccccc1)NC(=O)[C@H](Cc1c[nH]cn1)NC(=O)[C@H](C)NC(=O)[C@H](CC(C)C)NC(=O)[C@H](CCCNC(=N)N)NC(=O)[C@H](CCC(N)=O)NC(=O)[C@@H](NC(=O)[C@H](C)NC(=O)[C@@H]1CSSC[C@H](NC(=O)[C@@H](N)CCCCNC(=O)CC[C@H](NC(=O)CCCCCCCCCCCCCCCCCCC(=O)O)C(=O)O)C(=O)N[C@@H](CC(N)=O)C(=O)N[C@@H]([C@@H](C)O)C(=O)N[C@@H](C)C(=O)N[C@@H]([C@@H](C)O)C(=O)N1)[C@@H](C)O)C(=O)N1CCC[C@H]1C(=O)N[C@@H](CO)C(=O)N[C@@H](CO)C(=O)N[C@H](C(=O)N[C@@H](CC(N)=O)C(=O)N[C@H](C(=O)NCC(=O)N1CCC[C@H]1C(=O)N[C@@H](CC(N)=O)C(=O)N[C@H](C(=O)N[C@@H](Cc1ccc(O)cc1)C(N)=O)[C@@H](C)O)C(C)C)[C@@H](C)O
notes: Analogue of human amylin; also called compound 67
